Source: the RNAGym collection of RNA variant scans (doi:10.1073/pnas.2313332121)

B1: TPR t1 (parent)
chain: GACCAAUCUGCCCUCAGAGCUCGAGAACAUCUUCGGAUGCAGAGGAGGCAGGCUUCGGUGGCGCGAUAGCGCCAACGUCCUCAACCUCCAAUGCAUCCCACCACAUGAUGAUGCCUGAAGAGCCUUGGUUUUUUG

Variants of: B1
Experiment: polymerase ribozyme fitness, log enrichment relative to wild type (log ratio); higher = more active; in vitro selection for triplet polymerase activity
Summary of the method: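 Only genotypes with ≥10 input reads and ≥1 read per output were kept after Illumina sequencing of input and output libraries. These libraries were PCR-built, transcribed mutants of each subunit of a heterodimeric triplet polymerase ribozyme, each put through one triplicate in vitro selection round with frozen incubation at −7 °C, gel excision of extended constructs, streptavidin-bead capture and RT-PCR. Fitness is a logarithmic ratio of genotype enrichment to wild-type enrichment, from inverse-variance-weighted replicate averages, with the logarithm in base 2.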

| Variant | polymerase ribozyme fitness (log ratio) |
| --- | --- |
| GACCAAUCUGCCCUCAGAGCUCGAGAACAUCUUCGGAUGCAGAGGAGACAGGCUUCGGUGGCGCGAUAGCGCCAACGUCCUCAACCUCCAAUGCAUCCCACCACACGAUGAUGCCUGAAGAGCCUUGGUUUUUUG [G48A U106C] | 0.21 |
| GACCAAUCUGCCCUCAGAGCUCGAGAACAUCUUCGGAUGCAGAGGAGCCAGGCUUCGGUGGCGCGAUAGCGCCAACGUCCACAACCUCCAAUGCAUCCCACCACAUGAUGAUGCCUGAAGAGCCUUCGUUUUUUG [G48C U81A G127C] | -3.51 |
| GACCAAUCUGCCCUCAGAGCUCGAGAACAUCUUCGGAUGCAGAGGAGCCAGGCUUCGGUGGCGCGAUAGCGCCAACGUCCUCAACCUCCAAUGCAUCCCACCACAUGAUGAUGCCGGAAGAGCCUUGGUUUUUUG [G48C U116G] | -3.09 |
| GACCAAUCUGCCCUCAGAGCUCGAGAACAUCUUCGGAUGCAGAGGAGCCAGGCUUCGGUGGCGCGAUAGCGCCAACAUCCUCAACCUCCAAUGCAUCCCACCACAUGAUGAUGCCUGAAGAGCCUUGGUGUUUUG [G48C G77A U130G] | -2.05 |
| GACCAAUCUGCCCUCAGAGCUCGAGAACAUCUUCGGAUGCAGAGGAGCCAGGCUUCGGUGGCGCGAUAGCGCCAACGUCCUCUACCACCAAUGCAUCCCACCACAUGAUGAUGCCUGAAGAGCCUUGGUUUUUUG [G48C A83U U87A] | -0.806 |
| GACCAAUCUGCCCUCAGAGCUCGAGAACAUCUUCGGAUGCAGAGGAGACAGGCUUCGGUGGCGCGAUAGCGCCAACGUCCUCAACCUCCAAUGCAUCCCACCACAUGAUGAUGCCUGAAGAGCCUUCGUUUUUUG [G48A G127C] | -2.52 |
| GACCAAUCUGCCCUCAGAGCUCGAGAACAUCUUCGGAUGCAGAGGAGCCAGGCUUCGGUGGCGCGAUAGCGGCAACGUCCUCAACCUCCAAUGCAUCCCACCAAAUGAUGAUGCCUGAACAGCCUUGAUUUUUUG [G48C C72G C104A G120C G128A] | -4.3 |
| GACCAAUCUGCCCUCAGAGCUCGAGAACAUCUUCGGAUGCAGAGGAGCCAGGCUUCGGUGGCGCGAUAGCGCCAACGUACUCAACCUCCAAUGCAUCCCACCACAUGAUGAUGCCUGAAGAGCCUUGGUUUUUUG [G48C C79A] | -3.15 |
| GACCAAUCUGCCCUCAGAGCUCGAGAACAUCUUCGGAUGCAGAGGAGCCAGGCUUCGGUGGCGCGAUAGCGCCAACGUCCUCAACCUCCAAUGCAUCCCACCACACGAUGAUGCCUGAAGAGCCUUGGUUUUUUG [G48C U106C] | -1 |
| GACCAAUCUGCCCUCAGAGCUCGAGAACAUCUUCGGAUGCAGAGGAGCCAGGCUUCGGUGGCGCGAUAGCGCCAACGUCCUCAACCUCCAAUGCAUCCCACCACAGGAUGAUGCCUGAAGAGCCUUGGUUUUUUG [G48C U106G] | -1.5 |
| GACCAAUCUGCCCUCAGAGCUCGAGAACAUCUUCGGAUGCAGAGGAGCGAGGCUUCGGUGGCGCGAUAGCGUCAACGUCCUCAACCUCCAAUGCAUUCCACCACAUGAUGAUGCCGGAAGAGCCUUGGUUUUUUG [G48C C49G C72U C97U U116G] | -2.86 |
| GACCAAUCUGCCCUCAGAGCUCGAGAACAUCUUCGGAUGCAGAGGAGACAGGCUUCGGUGGCGCGAUAGCGCCAACGUCCUCAACCUCCAAAGCAUCCCACCACAAGAUGAUGCCUGAAGAGCCUUGGUUUUUUG [G48A U92A U106A] | -3.9 |
| GACCAAUCUGCCCUCAGAGCUCGAGAACAUCUUCGGAUGCAGAGGAGCCAGGCUUUGGUGGCGCGAUAGCGCCAACGUCCUCAACCUCCAAUGCAUCCCAACACAUGAUGACGCCUGAAGAGCCUUGGUUUUUUC [G48C C56U C101A U112C G135C] | -0.346 |
| GACCAAUCUGCCCUCAGAGCUCGAGAACAUCUUCGGAUGCAGAGGAGCCAGGCUUCGGUUGCGCGAUAGCGCCAACGUCCUCAACCUCCAAUGCAUCCCACCACAUGAUGAUGCCUGAAGAGCCUUGGUUUUUUG [G48C G60U] | -2.22 |
| GACCAAUCUGCCCUCAGAGCUCGAGAACAUCUUCGGAUGCAGAGGAGCCAGGCUUCGGUGGCGCGAUAGCGCCAACGUCCUCAACCUCCAAUGCAUCCCACCACAUGAUGAUGCAUGAAGAGCCUUGGUUUUUUG [G48C C115A] | -1.84 |
| GACCAAUCUGCCCUCAGAGCUCGAGAACAUCUUCGGAUGCAGAGGAGACAGGCUUCGGUGGCGCGAUAGCGCCAACGUCCUCAACCUCCAAUGCAUCCCACCACAUGAUGAUGCCUGAAGAGCCUUGGUUUAUUG [G48A U132A] | -0.715 |
| GACCAAUCUGCCCUCAGAGCUCGAGAACAUCUUCGGAUGCAGAGGAGCCAGGCUUCGGUGGCGCGAUAGCGCCAACGUCCUCAAUCUCCAAUGCAUCCCACCACAUGAUGAUGCCUUAAGAGCCUUGGUUUUUUG [G48C C85U G117U] | -3.32 |
| GACCAAUCUGCCCUCAGAGCUCGAGAACAUCUUCGGAUGCAGAGGAGCAAGGCUCCGGUGACGCGAUAGCGCCAACGUCCUCAACCUCCAAUGCGUCCCACCACAUGAUAAUGCCUGAAGAGCCUUGGUUUUUUG [G48C C49A U55C G61A A95G G110A] | -2.85 |
| GACCAAUCUGCCCUCAGAGCUCGAGAACAUCUUCGGAUGCAGAGGAGCCAGGCUUAGGUGGCGCGAUAGCGACAACGACCUCAACCUCCAAUGCAUCCCACCACAUGAUGAUGCCUGAAGAGCCUUGGUUUUUUG [G48C C56A C72A U78A] | -1.06 |
| GACCAAUCUGCCCUCAGAGCUCGAGAACAUCUUCGGAUGCAGAGGAGACAGGCUUCGGCGGCGCGAUAGCGCCAACGUCCUAAACCUCCAAUCCAUCCCACCACAUGAUGAUGCCGGAAGAGCCUUGGUUAUUUG [G48A U59C C82A G93C U116G U131A] | -4.51 |
| GACCAAUCUGCCCUCAGAGCUCGAGAACAUCUUCGGAUGCAGAGGAGACAGGCUUCGGUGGCGCGAUAGCGCCAACGUCCUCAACCUCCAAUGCAACCCACCAUAUGAUGAUGCCUGAAGAGCCUUGGUUAUUUG [G48A U96A C104U U131A] | -1.66 |
